# Data reported in article PMC5131957.
# Target: p53CD (core domain) (human) (UniProt P04637)
# Assay: ELISA
# Conditions: EMSA: 5 mM Tris-HCl pH 8, 1 mM MgCl2, 0.01% Triton X-100, 50 mM KCl, on ice or 25 C, 30 min, pBSK/SmaI competitor 5-50 ng; ELISA: 1x PBS, 2 mM MgCl2 …
# Chain of p53CD (core domain) (human) (P04637 94-312): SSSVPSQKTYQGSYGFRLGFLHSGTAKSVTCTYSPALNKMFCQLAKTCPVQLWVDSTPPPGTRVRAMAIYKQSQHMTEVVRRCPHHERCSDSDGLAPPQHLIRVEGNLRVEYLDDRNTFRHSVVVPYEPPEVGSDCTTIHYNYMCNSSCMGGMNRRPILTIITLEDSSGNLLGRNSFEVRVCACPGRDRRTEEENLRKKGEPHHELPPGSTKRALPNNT
sequence,measurement,value
"TTTTTTTTTTTTTTTTTTTTTTTTTTTTTTTTTTTTTTTTTTTTTTTTTT / AAAAAAAAAAAAAAAAAAAAAAAAAAAAAAAAAAAAAAAAAAAAAAAAAA / TTTTTTTTTTTTTTTTTTTTTTTTTTTTTTTTTTTTTTTTTTTTTTTTTT [T.A.T triplex, biotinylated]",Kd,16.8 nM
